Square brackets hold non-standard residues; d marks the D form. 1Nal = N[C@@H](Cc1cccc2ccccc12)C(=O)O; Aib = CC(C)(N)C(=O)O
Legend:
human GLP-1 receptor = human GLP-1 receptor (human, UniProt P43220 24-463); experiment: cell-based or functional assay
human GIP receptor = target: T1, human GIP receptor (human, UniProt P48546 22-466); experiment: cell-based or functional assay
T1 sequence (looked up): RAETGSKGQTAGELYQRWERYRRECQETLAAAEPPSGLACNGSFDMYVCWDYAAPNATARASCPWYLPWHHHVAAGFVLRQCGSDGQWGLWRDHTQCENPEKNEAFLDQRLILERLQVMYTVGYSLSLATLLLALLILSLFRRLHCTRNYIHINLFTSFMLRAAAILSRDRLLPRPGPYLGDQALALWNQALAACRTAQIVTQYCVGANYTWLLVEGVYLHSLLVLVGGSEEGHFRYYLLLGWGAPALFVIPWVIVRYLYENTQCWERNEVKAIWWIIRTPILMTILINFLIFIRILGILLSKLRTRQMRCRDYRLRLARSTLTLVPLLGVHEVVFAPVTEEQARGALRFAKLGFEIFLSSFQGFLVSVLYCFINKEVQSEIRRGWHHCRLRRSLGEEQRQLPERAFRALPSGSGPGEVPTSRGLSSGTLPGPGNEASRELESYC

B1: Compound 3 (peptide)
peptide: H-Y[Aib]EGTFTSDYSIALDKIAQRAFVNWLVA[Aib]K-NH2
SMILES: CC[C@H](C)[C@H](NC(=O)[C@H](CCCCN)NC(=O)[C@H](CC(=O)O)NC(=O)[C@H](CC(C)C)NC(=O)[C@H](C)NC(=O)[C@@H](NC(=O)[C@H](CO)NC(=O)[C@H](Cc1ccc(O)cc1)NC(=O)[C@H](CC(=O)O)NC(=O)[C@H](CO)NC(=O)[C@@H](NC(=O)[C@H](Cc1ccccc1)NC(=O)[C@@H](NC(=O)CNC(=O)[C@H](CCC(=O)O)NC(=O)C(C)(C)NC(=O)[C@@H](N)Cc1ccc(O)cc1)[C@@H](C)O)[C@@H](C)O)[C@@H](C)CC)C(=O)N[C@@H](C)C(=O)N[C@@H](CCC(N)=O)C(=O)N[C@@H](CCCNC(=N)N)C(=O)N[C@@H](C)C(=O)N[C@@H](Cc1ccccc1)C(=O)N[C@H](C(=O)N[C@@H](CC(N)=O)C(=O)N[C@@H](Cc1c[nH]c2ccccc12)C(=O)N[C@@H](CC(C)C)C(=O)N[C@H](C(=O)N[C@@H](C)C(=O)NC(C)(C)C(=O)N[C@@H](CCCCN)C(N)=O)C(C)C)C(C)C
Human GLP-1 receptor
  EC50, cAMP induction in HEK293 cells expressing human GLP-1 R: 0.022 nM
Human GIP receptor
  EC50, cAMP induction in HEK293 cells expressing human GIP R: 0.015 nM

B2: Compound 24 (peptide)
peptide: H-Y[Aib]EGTFTSDYSIYLDKKAQRAFVNWLL[Aib]K-NH2
SMILES: CC[C@H](C)[C@H](NC(=O)[C@H](CO)NC(=O)[C@H](Cc1ccc(O)cc1)NC(=O)[C@H](CC(=O)O)NC(=O)[C@H](CO)NC(=O)[C@@H](NC(=O)[C@H](Cc1ccccc1)NC(=O)[C@@H](NC(=O)CNC(=O)[C@H](CCC(=O)O)NC(=O)C(C)(C)NC(=O)[C@@H](N)Cc1ccc(O)cc1)[C@@H](C)O)[C@@H](C)O)C(=O)N[C@@H](Cc1ccc(O)cc1)C(=O)N[C@@H](CC(C)C)C(=O)N[C@@H](CC(=O)O)C(=O)N[C@@H](CCCCN)C(=O)N[C@@H](CCCCN)C(=O)N[C@@H](C)C(=O)N[C@@H](CCC(N)=O)C(=O)N[C@@H](CCCNC(=N)N)C(=O)N[C@@H](C)C(=O)N[C@@H](Cc1ccccc1)C(=O)N[C@H](C(=O)N[C@@H](CC(N)=O)C(=O)N[C@@H](Cc1c[nH]c2ccccc12)C(=O)N[C@@H](CC(C)C)C(=O)N[C@@H](CC(C)C)C(=O)NC(C)(C)C(=O)N[C@@H](CCCCN)C(N)=O)C(C)C
Human GLP-1 receptor
  EC50, cAMP induction in HEK293 cells expressing human GLP-1 R: 0.0085 nM
Human GIP receptor
  EC50, cAMP induction in HEK293 cells expressing human GIP R: 0.096 nM

B3: Compound 26 (peptide)
peptide: H-Y[Aib]EGTFTSDYSIYLDKKAQRAFVNWLLAYG[1Nal]LDF-NH2
SMILES: CC[C@H](C)[C@H](NC(=O)[C@H](CO)NC(=O)[C@H](Cc1ccc(O)cc1)NC(=O)[C@H](CC(=O)O)NC(=O)[C@H](CO)NC(=O)[C@@H](NC(=O)[C@H](Cc1ccccc1)NC(=O)[C@@H](NC(=O)CNC(=O)[C@H](CCC(=O)O)NC(=O)C(C)(C)NC(=O)[C@@H](N)Cc1ccc(O)cc1)[C@@H](C)O)[C@@H](C)O)C(=O)N[C@@H](Cc1ccc(O)cc1)C(=O)N[C@@H](CC(C)C)C(=O)N[C@@H](CC(=O)O)C(=O)N[C@@H](CCCCN)C(=O)N[C@@H](CCCCN)C(=O)N[C@@H](C)C(=O)N[C@@H](CCC(N)=O)C(=O)N[C@@H](CCCNC(=N)N)C(=O)N[C@@H](C)C(=O)N[C@@H](Cc1ccccc1)C(=O)N[C@H](C(=O)N[C@@H](CC(N)=O)C(=O)N[C@@H](Cc1c[nH]c2ccccc12)C(=O)N[C@@H](CC(C)C)C(=O)N[C@@H](CC(C)C)C(=O)N[C@@H](C)C(=O)N[C@@H](Cc1ccc(O)cc1)C(=O)NCC(=O)N[C@@H](Cc1cccc2ccccc12)C(=O)N[C@@H](CC(C)C)C(=O)N[C@@H](CC(=O)O)C(=O)N[C@@H](Cc1ccccc1)C(N)=O)C(C)C
Human GLP-1 receptor
  EC50, cAMP induction in HEK293 cells expressing human GLP-1 R: 0.39 nM
Human GIP receptor
  EC50, cAMP induction in HEK293 cells expressing human GIP R: 0.8 nM

B4: Compound 25 (peptide)
peptide: H-Y[Aib]EGTFTSDYSIYLDKKAQRAFVNWLLA[Aib]KYG[1Nal]LDF-NH2
SMILES: CC[C@H](C)[C@H](NC(=O)[C@H](CO)NC(=O)[C@H](Cc1ccc(O)cc1)NC(=O)[C@H](CC(=O)O)NC(=O)[C@H](CO)NC(=O)[C@@H](NC(=O)[C@H](Cc1ccccc1)NC(=O)[C@@H](NC(=O)CNC(=O)[C@H](CCC(=O)O)NC(=O)C(C)(C)NC(=O)[C@@H](N)Cc1ccc(O)cc1)[C@@H](C)O)[C@@H](C)O)C(=O)N[C@@H](Cc1ccc(O)cc1)C(=O)N[C@@H](CC(C)C)C(=O)N[C@@H](CC(=O)O)C(=O)N[C@@H](CCCCN)C(=O)N[C@@H](CCCCN)C(=O)N[C@@H](C)C(=O)N[C@@H](CCC(N)=O)C(=O)N[C@@H](CCCNC(=N)N)C(=O)N[C@@H](C)C(=O)N[C@@H](Cc1ccccc1)C(=O)N[C@H](C(=O)N[C@@H](CC(N)=O)C(=O)N[C@@H](Cc1c[nH]c2ccccc12)C(=O)N[C@@H](CC(C)C)C(=O)N[C@@H](CC(C)C)C(=O)N[C@@H](C)C(=O)NC(C)(C)C(=O)N[C@@H](CCCCN)C(=O)N[C@@H](Cc1ccc(O)cc1)C(=O)NCC(=O)N[C@@H](Cc1cccc2ccccc12)C(=O)N[C@@H](CC(C)C)C(=O)N[C@@H](CC(=O)O)C(=O)N[C@@H](Cc1ccccc1)C(N)=O)C(C)C
Human GLP-1 receptor
  EC50, cAMP induction in HEK293 cells expressing human GLP-1 R: 0.041 nM
Human GIP receptor
  EC50, cAMP induction in HEK293 cells expressing human GIP R: 0.12 nM

B5: Compound 27 (peptide)
peptide: H-Y[Aib]EGTFTSDYSIYLDKKAEKAFVNWLLA[Aib]K-NH2
SMILES: CC[C@H](C)[C@H](NC(=O)[C@H](CO)NC(=O)[C@H](Cc1ccc(O)cc1)NC(=O)[C@H](CC(=O)O)NC(=O)[C@H](CO)NC(=O)[C@@H](NC(=O)[C@H](Cc1ccccc1)NC(=O)[C@@H](NC(=O)CNC(=O)[C@H](CCC(=O)O)NC(=O)C(C)(C)NC(=O)[C@@H](N)Cc1ccc(O)cc1)[C@@H](C)O)[C@@H](C)O)C(=O)N[C@@H](Cc1ccc(O)cc1)C(=O)N[C@@H](CC(C)C)C(=O)N[C@@H](CC(=O)O)C(=O)N[C@@H](CCCCN)C(=O)N[C@@H](CCCCN)C(=O)N[C@@H](C)C(=O)N[C@@H](CCC(=O)O)C(=O)N[C@@H](CCCCN)C(=O)N[C@@H](C)C(=O)N[C@@H](Cc1ccccc1)C(=O)N[C@H](C(=O)N[C@@H](CC(N)=O)C(=O)N[C@@H](Cc1c[nH]c2ccccc12)C(=O)N[C@@H](CC(C)C)C(=O)N[C@@H](CC(C)C)C(=O)N[C@@H](C)C(=O)NC(C)(C)C(=O)N[C@@H](CCCCN)C(N)=O)C(C)C
Human GLP-1 receptor
  EC50, cAMP induction in HEK293 cells expressing human GLP-1 R: 0.074 nM
Human GIP receptor
  EC50, cAMP induction in HEK293 cells expressing human GIP R: 0.3 nM
